According to a protein production outcome set (Wang et al. 2014):

Experiment: label from the status in PepcDB records
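Further: failed if final PepcDB status was selected cloned or expressed and not failed if soluble or beyond.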

Sequence	protein production
MTSRSDAGVFHVRALLLGVLYVCGSLLFVTSMLSKTTTLTNVSSNTCPTVRGVDQIIVLLVDALRPDFVLPALSPHYLDGVECSTVSARGVDGNVNGDRRSTLTYMEENLKRVAHPSHGFFFLSDTPTITAQRIKAITTGTTPAFLEVGTNLNTDEVQIDNILLQLRRRSILLGDDTWLNLFPDHQGNASFWKHTHALPPYNVSDFDTNDATVIADLMPLLLSETAEQAPDDYARLIIGHLLAVDHVGHRHHASHPAMYKKLSDINEMLRNVTKRLREERQTSMRTLLVVFGDHGMTNSGDHGGDSEGERDSFMYAELFESSRDSVHAPVNSSDKFQRKNNLTEKRWEDNIDEDLSRLKACRDVAGVHPGKLSAVHQVDLTPTLALLLGVPIPFSNVGRVIPEMVALSNPDVNMSASEECNWKQLTSYFDEAGLYIKPEWKDSNLSLRRRIAQMSHFARSIRMEIRRDGAFIGSSLCMVTALSLLRNGDIQQVICGRSVLGIGTLFLLVLRLLAVFANSFIIKESVEVFCLLQLLLIAALFVAPTKGGGRHASFLIVILLVLLRVAVPLVSRERSHITHTAEATSHLEMWLAKQFPEFHYNSVGIILGAALFVFSAPTMPHRLMGIVLGTVAAVCYGQPLIHHIGPFVFFALTFFFRGMGPLRYTALVLWSSSLCNDNYVASASIAVSGVLLPVVLTATRHLPVVPQALMLHLYMWVSFFAQGNQCLLNTVDLNASFVGLPFNSVALGSVFVLSRLCNAFLFAPIAVMITYGTDRARGWRVCYLLLYITLAQSAVSSFNGYIQKSHLMFFPIFCPKFIFDFCIGMAACIGYALAALLA	failed
MSKVNEITRESWILSTFPEWGTWLNEEIEQTVVEPNTFSMWWLGCTGIWLKSAGNTNLSIDFWCGTGKKTQKNRLMNTQHQMMRMGGVEALQPNLRTSIFPLDPFAIKEIDAVLASHDHADHIDVNVAAAVLQNCGEHVKFIGPQACVDLWLGWGVPQERCIVAKVGDVLEIGDVKIRVLDSFDRTALVTLPKGVSSYDKAILDGMDERAVNYLIETSGGSVYHSGDSHYSNYYAKHGNDYQIDVALLSYGENPRGVTDKMTSSDVLRAAESLDCQVVVPFHHDIWANFQNDPREIEVLWNMKKDRLQYQFAPFFWQVGGKYTYPTDKGRMHYQHFRGFQDIFKNEPELPYKAFL	not failed
MAQPLFSLDGQSLITPQSVSNKFPSPHNHNETDRLRIAEAEFAVVINIAVQRFAAGKNLPDAVRWLIGQLHDIRQKFGAAVWQKIIPIIQAHPSATILQQCPFTRWSFEKPRGYSGDAGLIDFIYGHPAVAEEVARSTPLGLNIFEYTINAPGPVAVRERRDTLTRYVDETAVRTGSDTEILAIAAGHLREAEASKALAEGRLKRWVALDQDPESIGSISSQFHGTSVQPINGSVRGLLARKHQIGTFDLIYAAGLYDYLTDKVAIRLTQICMEMLKPGGVFLFANFSDEMADDGYMESYMNWELLQRSEADMWRITNAGATQNAVDKTVWFGANRNIIYSTIRKRS	failed
MNQLPNCPKCLSEYCYEDGDVLICPECTHEWPKNSNNNDEESAKIIKDANGNLLQNGDTITVVKDLKIKGSSQVIKVGTKVKNIRLVDGDHDIDCRIDGIGAMKLKSQFVKKILEHHHHHH	failed
MPIVARSSRVPWVIKYRPKRVEDVVNQDQAKKILVPWFKAWLEGRKPDKRAALLYGPPGVGKTSLVEAIASEFNLEMIELNASDYRRRSDIERIVGAASRKRSMFKRGVVILLDEVDGINPREDAGGIEALLSVIKTTENPIVMTANDPWKDFLRPLREVSLMVEFRPLTLTHIVAVLQRICEAERIECEREALRYIAERSEGDLRSAINDLQAVAEGYGRVTLTLAREIVRGREKSIDIWRTLNQVFYKPRQAWMARKAVSQSEKDYEELIAWINDNIPRKYGEPSDLFRAFDALARATVFLGRAKFGGNWELLSYVFDLMGPGVAYARMEGEVLKTRYSYPEKIRMMAQLRGVRETREKLAEVLAKRLLMSRRAVKTEVLPILHYIFRSSRDPTKPAMIALEYGLTEKMVELLAGQRKSEILKAMATVKKARLGEKPLEPQEAKARRRGEKASRDEGRKAGKRERKGVGLDFFLGEQ	failed
MADTGDTAGAKKNGDSTFTVLVAAFANLGIAVAKAVAGVISGSSAMLSEAAHSVADTVTEVLLLTSLKRSVRPADEDHPLGHGPERYIWALLAAVATFVGGAVFSLYDGIHTLTHGEDLGDPLVSYIVLAVAFVLEGYSLRTGLRQVRGEAAHHRVSFGRYLRRTPDTAVKAVVMEDSAALAGLLLAAGGLLGGQLTGSGVWDAVASLCIGALLLYVAWVLGRSNAEFLVGRPLSRSVRDRIRAELVADEHIEAVLELTTLVQGPREALVAAKVDFRDVSTAAQIEWACERAEQRLREEFPIVRRVYLDPTPGFAQRRTEGLNPWP	failed
MFERLPVPLSRHERAGPPMPEIGPYTLHTVDTGRFGLDGGAMFGIVPKPLWSQRIEPDEQNRIPLSMRCLLLIGDGRVVLIDTGIGDTFEDTKFQDIFAVDHSGATLEGSLAAHGVAPVDVTDVVLTHLHFDHAGGSTRRIDGEPAVAFPNATYHVQRRHWNWAADPNPKEEQSFRSDTFAPIEEAGQLNLVEGETTLLPHVDVSLVHGHTEAQQTVTVRDDETTLVYVADLLPTTHHLSPAWTMAYDVRPLRTIEEKGEFLEQAADSEWKLFFEHDPEVAVADVERTDRGVQVVNERSLDAL	failed
MDVDVDVDVEMDMDMDMYVALVEVEVEVFLLRTQILTESRKGRMITNMKKPNGNVTNVCDRCGGNGHWFHTCRIPKYLVELYKQSLKQDGKNTETNLVYEKGEDDTTHMELDDFLTHDGNIDS	failed
MEEKQPQKTKEPSKEDEPQQKEMPTHLSLGAESKAEAKTPVLVETQTVDNANEKSEKPPENQKKLSDKDTVATKIKAWWRGTLVRRALLHAALSACIIQCWWRLILSKILKKRRQAALEAFSRKEWAAVTLQSQARMWRIRRRYCQVLNAVRIIQAYWRCRSCASRGFIKGQYRVTANQLHLQLEILLDSGPCIVTECIPFSIKE	failed
TKGEKKQESFLLEYVSANPTGPLHIGHARGAVFGDTLTRLARHLGYKFNTEYYVNDAGNQIYLLGLSILLSVKESILHENVEYPEQYYKGEYIVDLAKEAFEKFGKEFFSEENIPSLADWAKDKMLVLIKQNLEQAKIKIDSYVSERSYYDALNATLESLKEHKGIYEQEGKIWLASSQKGDEKDRVIIREDGRGTYLAADIVYHKDKMSRGYGKCINIWGADHHGYIPRMKAAMEFLGFDSNNLEIILAQMVSLLKDGEPYKMSKRAGNFILMSDVVDEIGSDALRYIFLSKKCDTHLEFDISDLQKEDSSNPVYYINYAHARIHQVFAKAGKKID	failed
MSLRDTQTQLRNEMIYSVFVRNYSEAGNFAGVTADLQRIKDLGTDILWLLPINPIGEVNRKGTLGSPYAIKDYRGINPEYGTLADFKALTDRAHELGMKVMLDIVYNHTSPDSVLATEHPEWFYHDADGQLTNKVGDWSDVKDLDYGHHELWQYQIDTLLYWSQFVDGYRCDVAPLVPLDFWLEARKQVNAKYPETLWLAESAGSGFIEELRSQGYTGLSDSELYQAFDMTYDYDVFGDFKDYWQGRSTVERYVDLLQRQDATFPGNYVKMRFLENHDNARMMSLMHSKAEAVNNLTWIFMQRGIPLIYNGQEFLAEHQPSLFDRDTMVADRHGDVTPLIQKLVTIKQLPLLRAADYQLAVVEEGIVKITYRAAGEALTAWIPLKGQVTAVATKLAAGSYQNLLTDGPTEVVDGKLTVDGQPVLIKYVTNTAVTKVADQSNEGHHHHHH	not failed
IQPTYTSTTRIYVVNQATDNNNLSAQDLQAGTYLANDYKEIITSNDVLSEVIKDEKLNLSEAELSKMVSVNIPTDTRLISISVNAKTGQDAQTLANKVREVASKKIKKVTKVEDVTTLEEAKLPESPSSPNIK	failed
MYELVSPVNPLAVLRYIGHLLLVFSAVLLVPVLAAFVLGETDAAVIYGSSALVTAGTGFLLQKVLPDFELEIKEALILAALTFPLCSLVSAVPMAFSTGMPFLDAYFECVSGLTTTGLSLAPPSPTRLFFFTRSWLQWIGGIGIIVLVLGILIRPGTTAFRLYRVNFGESRIRPSVITTARTLGTVYLVLTLLSLLLLLFSGMPFYDAVCHTLSSISTGGFSTQAGSIGAYGGFLIPFLITVSCIMGAISFSLYPEVLKEPGTLIRDPQVRYLFGLSLLGTALFVLTLSGGEGGPELFHMMPDAVFQVVSALTGTGFSTIDLAPLSDASKGFLSAIMCIGGSIGSTTGGIKLFRLIVIVQLIKLVFYRFFLPREAITPLKVKSQVVDPDDFYRIMTYVLLYLAVLVFSAFIFMFYGINSADAIFETSSALATAGLSTGVTTPGMPSLLKLVLCADMLLGRVEIVPLFILLLPRTWFEINRNTGEKRSSKDTA	failed
MENSRHNEFFLPLLLCIILPIIFMLTTNIKILRKTFSFILQNSFLQSFVTIFISIILEALPFIIIGVFLSSLIQVFISEETLSRIIPKNIVLGILSAATIGLIFPVCDCAIVPIVRRLLKKGLPLPIGITFMLSVPIINPVVLTSTYYAFLSNPHAPLIRAVAGWISAVLIGFIINKLDKSKTKQAKLHEILFNERVYMPKNNPIVTSNHNHEHHKCSCGHVHHEEEKFSALTLVHVLDHVSLELQDVGRFVIMGAFLSALMQTFIPRKYILSIGHGNISSIIVMMILAYVLCVCSETDAFIARTFVNQFTNGSIVAFLIFGPMIDIKNTLMLCETFNLKFVFKLVSIIIVVCFLIGLAFNFVKIPL	failed
MKHASHKATTVSRQKFSLAKALFASGKGSHSVRAVRAVQSAGSDAVVLGLDPAIAEKINEIAPQTRRSIREAARAAERRSHILASASLAALVGTAAGALAFSNNEDATNSFVADPATTTTQIKRISDVTAASRSEARTDLSSSSVTAQSTNEGGWGLSNSDSTLDAKLMNRNNANNPVVSALVDADGDAVPAGFNPNHAVGTNSNNYPWGQCTWYAYQRRAELGLPSSGNFGNGGAWAASASALGYWVDNTPRHVGDAVVFAPGQADADGAYGHVAVLEKINADGSIEISESNAKGLGVISTRTFSAAEAGKFQYVHY	failed
MNYKKHRGETLFKRWFLNNRFSIVLLNILLFFLIIWVFNKISFVLNPAWVFFSAILPPLLLALIQYYIMNPVVDWFEKKFRVPRVLTIIVLFLFVVIAMIWIINILVPIAQHQINSLVKNWPHIWNDAVNATQNALRDPRLHSVKGSIQGMIDDTQKTLFKSGQNTVNSTLGNISSAVSIITMIVMTLLTAPFILFFMLKDGHQLRPYITKFVPETWQQSFSKLLYDINYAVASYIRGQITVAFWVGVMFTIGYIIIGLPYGLALAILAGFMNLIPYFGTPLALIPVIVISIMTSGSMLVKVLIVFAIEQTIETRILSPLVMGNKMQMHPVTTILLLIGASSVWGLWGVIFGIPIYAVLKIIVSRVYNYYRRESDIFSNEDAASLTTGDADESKK	failed
EKEDSKTRGEKIKSDFFELLSNHHLDSQSRWSKVKDKVESDPRYKAVDSSSMREDLFKQYIEKIAKNLDS	not failed
MIKLYSPYAFLSKYLGAILLSFFCYYAKEIGCNNLTLSVWNDNEGALRFYQRQGMKPQETTMEMIID	failed
MMKKTAAIISACMLTFALSACSGSNYVMHTNDGRTIVSDGKPQTDNDIGMISYKDANGNKQQINRTDVKEMVELEQLEHHHHHH	failed
MPLVSMKEMLNKALEGKYAVGQFNMNNLEWTQAILAAAEEEKSPVILGVSEGAARHMTGFKTVVAMVKALIEEMNITVPVAIHLDHGSSFEKCKEAIDAGFTSVMIDASHHPFEENVETTKKVVEYAHARNVSVEAELGTVGGQEDDVIAEGVIYADPAECKHLVEATGIDCLAPALGSVHGPYKGEPNLGFAEMEQVRDFTGVPLVLHGGTGIPTADIEKAISLGTSKINVNTENQIEFTKAVREVLNKDQEVYDPRKFIGPGRDAIKATVIGKIREFGSNGKA	not failed
